According to patent US20080096811A1, “[…] VPAC2 RECEPTOR PEPTIDE AGONISTS” (Eli Lilly and Company, published 2008):
Like-named read-outs stand apart in the source and are kept apart here. Where no end group is shown, it is not given here. The star is where a group is joined. Hexanoyl = CCCCCC(=O)*

How the values were obtained:
[1] = target: T1, human VPAC1 receptor (human) (UniProt P32241)
T1 sequence: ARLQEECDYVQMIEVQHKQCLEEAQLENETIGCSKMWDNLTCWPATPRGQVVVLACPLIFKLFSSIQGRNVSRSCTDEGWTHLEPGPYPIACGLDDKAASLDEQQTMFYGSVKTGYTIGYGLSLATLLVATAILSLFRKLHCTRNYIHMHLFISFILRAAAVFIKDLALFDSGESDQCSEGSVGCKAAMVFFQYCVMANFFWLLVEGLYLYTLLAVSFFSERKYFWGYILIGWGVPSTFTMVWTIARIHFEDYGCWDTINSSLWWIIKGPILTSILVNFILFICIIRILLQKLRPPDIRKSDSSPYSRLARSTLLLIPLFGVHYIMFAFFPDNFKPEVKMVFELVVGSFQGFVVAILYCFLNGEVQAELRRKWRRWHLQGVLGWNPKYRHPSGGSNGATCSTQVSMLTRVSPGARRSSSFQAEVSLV

[2] = target: T2, human VPAC2 receptor (human) (UniProt P41587)
T2 sequence: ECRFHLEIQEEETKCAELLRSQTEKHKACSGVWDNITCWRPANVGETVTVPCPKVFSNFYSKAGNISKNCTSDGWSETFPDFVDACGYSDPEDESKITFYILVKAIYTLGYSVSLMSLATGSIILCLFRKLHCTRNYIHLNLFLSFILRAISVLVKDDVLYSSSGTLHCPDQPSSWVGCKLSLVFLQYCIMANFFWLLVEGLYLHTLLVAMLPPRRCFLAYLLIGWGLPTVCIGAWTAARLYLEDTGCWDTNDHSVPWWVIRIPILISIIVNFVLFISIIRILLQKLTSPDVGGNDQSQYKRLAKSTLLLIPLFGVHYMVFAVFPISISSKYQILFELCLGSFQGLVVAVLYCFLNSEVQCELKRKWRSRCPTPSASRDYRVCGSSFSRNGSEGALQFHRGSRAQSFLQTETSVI

human PAC1 receptor [3] = target: T3, human PAC1 receptor (human, UniProt P41586)
Target sequence in this assay (P41586 21-468): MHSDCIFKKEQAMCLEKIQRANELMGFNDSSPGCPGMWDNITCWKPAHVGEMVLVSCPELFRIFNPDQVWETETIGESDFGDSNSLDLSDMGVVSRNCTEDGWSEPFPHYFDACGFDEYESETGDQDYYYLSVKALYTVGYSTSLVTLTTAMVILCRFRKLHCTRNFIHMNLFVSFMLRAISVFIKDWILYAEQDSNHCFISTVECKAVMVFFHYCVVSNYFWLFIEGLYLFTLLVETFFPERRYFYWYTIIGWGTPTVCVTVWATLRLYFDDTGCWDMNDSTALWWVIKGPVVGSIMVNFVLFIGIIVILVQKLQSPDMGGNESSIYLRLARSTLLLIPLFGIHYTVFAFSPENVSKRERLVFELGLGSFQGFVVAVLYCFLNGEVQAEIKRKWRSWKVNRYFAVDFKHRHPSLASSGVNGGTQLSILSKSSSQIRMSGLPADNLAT

rat VPAC1 receptor = target: T4, rat VPAC1 receptor (rat, UniProt P30083); experiment: cell-based or functional assay
T4 sequence: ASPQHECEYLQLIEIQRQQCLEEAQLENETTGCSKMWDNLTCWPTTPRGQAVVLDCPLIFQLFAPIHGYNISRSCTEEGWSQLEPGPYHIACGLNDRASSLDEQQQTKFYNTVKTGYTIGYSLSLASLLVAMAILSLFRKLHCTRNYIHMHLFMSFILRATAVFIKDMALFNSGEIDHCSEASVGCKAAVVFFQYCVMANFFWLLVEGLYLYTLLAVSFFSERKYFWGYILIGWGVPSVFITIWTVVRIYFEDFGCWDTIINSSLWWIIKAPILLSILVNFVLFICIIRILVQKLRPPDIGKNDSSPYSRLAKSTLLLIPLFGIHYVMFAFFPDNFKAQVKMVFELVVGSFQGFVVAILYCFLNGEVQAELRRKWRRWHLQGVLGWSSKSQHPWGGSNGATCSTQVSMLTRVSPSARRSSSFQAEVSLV

rat VPAC2 receptor = target: T5, rat VPAC2 receptor (rat, UniProt P35000); experiment: cell-based or functional assay
T5 sequence: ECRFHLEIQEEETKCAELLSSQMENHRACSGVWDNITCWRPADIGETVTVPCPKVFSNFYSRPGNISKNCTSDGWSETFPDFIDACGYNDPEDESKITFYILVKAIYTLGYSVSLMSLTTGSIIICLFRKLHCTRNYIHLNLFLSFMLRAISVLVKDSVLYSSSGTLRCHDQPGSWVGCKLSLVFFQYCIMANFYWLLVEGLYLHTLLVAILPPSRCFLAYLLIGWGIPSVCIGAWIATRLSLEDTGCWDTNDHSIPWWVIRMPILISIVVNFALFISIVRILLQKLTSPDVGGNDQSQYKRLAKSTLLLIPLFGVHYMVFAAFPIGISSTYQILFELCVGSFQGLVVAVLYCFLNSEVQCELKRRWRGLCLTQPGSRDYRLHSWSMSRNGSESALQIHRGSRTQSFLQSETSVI

human PAC1 receptor [4] = target: T3, human PAC1 receptor; experiment: cell-based or functional assay

Q: With HSDAVFTDNYTRLRKQVAAKKYLQSIKNSRTSPPP-NH2 [P5] as the binder, how does the EC50 (nM) for cAMP generation, DiscoveRx [1] read?
A: 1.1 nM

Q: What about the EC50 (nM) for cAMP generation, Alpha Screen [2] of the same binder?
A: 1.5 nM

Q: What about the EC50 (nM) for cAMP generation, DiscoveRx [2] of the same binder?
A: 1.21 nM

Q: What about the EC50 (nM) for cAMP generation, DiscoveRx (human PAC1 receptor [3]) of the same binder?
A: 30 nM

Q: And the “EC50 for cAMP generation, DiscoveRx” value (rat VPAC1 receptor)?
A: 0.96 nM

Q: What about the “EC50 for cAMP generation, DiscoveRx” value (rat VPAC2 receptor) of the same binder?
A: 2.23 nM

Q: With Ac-HSDAVFTDNYTRLRKQVAAKKYLQSIKNSRTSPPP-NH2 [P32] as the binder, how does the EC50 (nM) for cAMP generation, DiscoveRx [1] read?
A: 8.24 nM

Q: And the EC50 (nM) for cAMP generation, Alpha Screen [2]?
A: 0.32 nM

Q: What about the EC50 (nM) for cAMP generation, DiscoveRx [2] of the same binder?
A: 0.65 nM

Q: What about the “EC50 (nM) for cAMP generation, DiscoveRx” value (human PAC1 receptor [4]) of the same binder?
A: 125 nM

Q: What about the “EC50 for cAMP generation, DiscoveRx” value (rat VPAC1 receptor) of the same binder?
A: 0.73 nM

B1: P30 (peptide)
peptide: Hexanoyl-HSDAVFTDNYTRLRKQVAAKKYLQSIKNSRTSPPP-NH2
SMILES: CCCCCC(=O)N[C@@H](Cc1c[nH]cn1)C(=O)N[C@@H](CO)C(=O)N[C@@H](CC(=O)O)C(=O)N[C@@H](C)C(=O)N[C@H](C(=O)N[C@@H](Cc1ccccc1)C(=O)N[C@H](C(=O)N[C@@H](CC(=O)O)C(=O)N[C@@H](CC(N)=O)C(=O)N[C@@H](Cc1ccc(O)cc1)C(=O)N[C@H](C(=O)N[C@@H](CCCNC(=N)N)C(=O)N[C@@H](CC(C)C)C(=O)N[C@@H](CCCNC(=N)N)C(=O)N[C@@H](CCCCN)C(=O)N[C@@H](CCC(N)=O)C(=O)N[C@H](C(=O)N[C@@H](C)C(=O)N[C@@H](C)C(=O)N[C@@H](CCCCN)C(=O)N[C@@H](CCCCN)C(=O)N[C@@H](Cc1ccc(O)cc1)C(=O)N[C@@H](CC(C)C)C(=O)N[C@@H](CCC(N)=O)C(=O)N[C@@H](CO)C(=O)N[C@H](C(=O)N[C@@H](CCCCN)C(=O)N[C@@H](CC(N)=O)C(=O)N[C@@H](CO)C(=O)N[C@@H](CCCNC(=N)N)C(=O)N[C@H](C(=O)N[C@@H](CO)C(=O)N1CCC[C@H]1C(=O)N1CCC[C@H]1C(=O)N1CCC[C@H]1C(N)=O)[C@@H](C)O)[C@@H](C)CC)C(C)C)[C@@H](C)O)[C@@H](C)O)C(C)C
Q: B1 was tested. Which EC50 (nM) for cAMP generation, DiscoveRx [1] did it give?
A: 6.45 nM

Q: What about the EC50 (nM) for cAMP generation, Alpha Screen [2] of the same binder?
A: 0.08 nM

Q: And the EC50 (nM) for cAMP generation, DiscoveRx [2]?
A: 0.09 nM

Q: What about the EC50 (nM) for cAMP generation, DiscoveRx (human PAC1 receptor [3]) of the same binder?
A: 27 nM

Q: What about the “EC50 for cAMP generation, DiscoveRx” value (rat VPAC1 receptor) of the same binder?
A: 0.62 nM
